Assay results as given in PMC10766600, “Antigen self-anchoring onto bacteriophage T5 capsid-like particles for vaccine design” (NPJ Vaccines, 2024).

Biological target: T1, decoration protein pb10 of bacteriophage T5, full length (bacteriophage T5, UniProt Q6QGD6 1-164)
T1 construct: Cloned in pET28b; also called native pb10; unmodified pb10; source: E. coli BL21 (DE3), purified (HisTrap FF, HiTrap SP, Superdex 75)
T1 sequence (looked up): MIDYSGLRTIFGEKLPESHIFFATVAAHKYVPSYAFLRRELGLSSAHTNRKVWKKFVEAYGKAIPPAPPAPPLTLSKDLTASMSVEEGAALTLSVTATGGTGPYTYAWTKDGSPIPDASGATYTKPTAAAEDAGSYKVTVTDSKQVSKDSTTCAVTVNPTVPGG
Test: SPR; T5 CLPs captured on a CM5 chip through covalently coupled rabbit polyclonal anti-capsid antibodies (about 900 RU); pb10 or chimeras injected at 0.25-4 nM for 200 s at 50 µL/min; 25 °C; PBS with 0.05% Tween 20 and 1 mg/mL BSA; simple Langmuir model
Details: both partners purified

B1: bacteriophage T5 capsid-like particles (T5 CLPs) (complex)
chain: AVNQSSSVEVSSESYETIFSQRIIRDLQKELVVGALFEELPMSSKILTMLVEPDAGKATWVAASTYGTDTTTGEEVKGALKEIHFSTYKLAAKSFITDETEEDAIFSLLPLLRKRLIEAHAVSIEEAFMTGDGSGKPKGLLTLASEDSAKVVTEAKADGSVLVTAKTISKLRRKLGRHGLKLSKLVLIVSMDAYYDLLEDEEWQDVAQVGNDSVKLQGQVGRIYGLPVVVSEYFPAKANSAEFAVIVYKDNFVMPRQRAVTVERERQAGKQRDAYYVTQRVNLQRYFANGVVSGTYAAS
modifications: DNA-free expanded capsid lacking pb10 (T5 dec deletion, stAmN5). Mature pb8 after removal of the scaffolding domain; limits from the UniProt chain feature, matching the 299 aa entity of PDB 6OMC/6OMA.
  Kd: 1.5 to 2.3 pM
